Assays:
Assay in all cases: MST
DF3 (YTHDF3) = target: T1, DF3 (YTHDF3) (UniProt Q7Z739 1-585)
T1 sequence: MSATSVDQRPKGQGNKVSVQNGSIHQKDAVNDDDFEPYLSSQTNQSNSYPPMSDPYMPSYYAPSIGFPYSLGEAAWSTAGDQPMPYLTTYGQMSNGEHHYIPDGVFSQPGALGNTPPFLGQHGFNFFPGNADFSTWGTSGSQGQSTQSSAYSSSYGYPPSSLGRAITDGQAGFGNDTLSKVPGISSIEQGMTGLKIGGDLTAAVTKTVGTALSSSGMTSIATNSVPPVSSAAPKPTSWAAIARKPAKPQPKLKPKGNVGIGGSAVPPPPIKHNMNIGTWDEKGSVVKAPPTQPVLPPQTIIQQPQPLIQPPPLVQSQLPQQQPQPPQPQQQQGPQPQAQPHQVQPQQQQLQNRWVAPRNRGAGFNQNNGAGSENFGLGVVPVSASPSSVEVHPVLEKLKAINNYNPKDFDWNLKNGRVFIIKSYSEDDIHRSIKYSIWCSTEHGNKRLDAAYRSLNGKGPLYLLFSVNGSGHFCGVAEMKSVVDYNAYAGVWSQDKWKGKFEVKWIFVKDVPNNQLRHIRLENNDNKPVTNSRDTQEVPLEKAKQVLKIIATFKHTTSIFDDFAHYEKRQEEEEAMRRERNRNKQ

DF1 (YTHDF1) = target: T2, DF1 (YTHDF1) (UniProt Q9BYJ9 1-559)
T2 sequence: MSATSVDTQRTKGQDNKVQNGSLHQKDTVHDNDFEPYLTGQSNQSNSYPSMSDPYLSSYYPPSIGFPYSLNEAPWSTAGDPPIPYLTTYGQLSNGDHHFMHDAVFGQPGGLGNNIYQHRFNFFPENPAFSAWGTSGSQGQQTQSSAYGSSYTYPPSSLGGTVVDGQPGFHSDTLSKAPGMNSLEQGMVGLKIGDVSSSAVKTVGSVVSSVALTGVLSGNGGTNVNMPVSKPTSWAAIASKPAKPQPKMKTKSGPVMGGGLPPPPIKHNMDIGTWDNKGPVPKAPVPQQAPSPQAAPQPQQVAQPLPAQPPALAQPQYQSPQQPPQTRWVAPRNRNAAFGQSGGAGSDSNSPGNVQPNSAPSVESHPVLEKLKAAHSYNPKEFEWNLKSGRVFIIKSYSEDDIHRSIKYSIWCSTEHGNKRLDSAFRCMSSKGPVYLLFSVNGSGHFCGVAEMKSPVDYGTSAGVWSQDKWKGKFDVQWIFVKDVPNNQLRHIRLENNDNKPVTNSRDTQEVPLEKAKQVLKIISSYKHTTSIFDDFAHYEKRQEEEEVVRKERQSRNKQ

DF2 (YTHDF2) = target: T3, DF2 (YTHDF2) (UniProt Q9Y5A9 1-579)
T3 sequence: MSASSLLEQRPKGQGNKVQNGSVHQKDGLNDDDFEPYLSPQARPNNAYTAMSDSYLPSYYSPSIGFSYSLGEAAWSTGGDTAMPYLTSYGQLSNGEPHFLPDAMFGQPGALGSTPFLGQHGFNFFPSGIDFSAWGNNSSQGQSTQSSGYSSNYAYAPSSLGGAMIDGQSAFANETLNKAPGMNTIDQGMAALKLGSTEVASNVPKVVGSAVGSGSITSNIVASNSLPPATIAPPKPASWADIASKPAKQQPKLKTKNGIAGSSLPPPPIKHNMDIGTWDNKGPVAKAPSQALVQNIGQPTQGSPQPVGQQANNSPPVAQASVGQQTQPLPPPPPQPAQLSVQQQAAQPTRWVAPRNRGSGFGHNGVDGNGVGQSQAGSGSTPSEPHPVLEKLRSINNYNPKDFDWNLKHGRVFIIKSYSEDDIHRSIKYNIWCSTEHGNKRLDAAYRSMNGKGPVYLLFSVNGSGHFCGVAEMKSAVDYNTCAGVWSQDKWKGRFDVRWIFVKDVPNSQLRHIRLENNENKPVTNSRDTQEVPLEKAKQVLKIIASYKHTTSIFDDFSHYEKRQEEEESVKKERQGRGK

Measured: binding result

UCCGGACUGU (ssRNA, N6-methyladenosine at position 6) [m6A-modified RNA]
binds: all assays above
